Read-outs that look alike come from different tables or passages of the source.
Legend:
physchem = conditions: n-octanol/DPBS, pH 7.4
Experimental: LogD7.4 values of [^68Ga]Ga-LW02075, [^68Ga]Ga-LW02050, and [^68Ga]Ga-SB3 were measured via the shake flask method. An aliquot of the ^68Ga-labeled tracer (~1.85 MBq) was added to a 15 mL falcon tube containing 3 mL of n-octanol and 3 mL of DPBS (pH 7.4) followed by 1 min of vortex (n = 3). After that, the mixture was centrifuged at 5000 rpm for 10 min, and samples of the n-octanol (1 mL) and buffer (1 mL) layers were collected and counted on a Perkin Elmer (Waltham, MA, USA) Wizard2 2480 automatic gamma counter. The LogD7.4 values of [^68Ga]Ga-LW02075, [^68Ga]Ga-LW02050, and [^68Ga]Ga-SB3 were calculated following the equation: LogD7.4 = log10[(counts in the n-octanol phase)/(counts in the buffer phase)].

PC-3 tumor-bearing mice = assay: Ex vivo biodistribution in PC-3 tumor-bearing mice; conditions: 1 h post injection, 100 μg nonradioactive standard co-injected
Experimental: (§1) Biodistribution studies were conducted for ^68Ga-labeled SB3, LW02075 and LW02050 in PC-3 tumor-bearing mice (n = 4).
(§2) Imaging and biodistribution studies were performed on male NOD.Cg-Rag1^tm1Mom Il2rg^tm1Wjl/SzJ (NRG) mice following previously published procedures. The experiments were conducted following the guidelines established by the Canadian Council on Animal Care and approved by Animal Ethics Committee of the University of British Columbia. The mice were sedated (2.5% isoflurane in oxygen) and injected with 5 × 10^6 PC-3 cells (100 µL; 1:1 PBS/Matrigel) subcutaneously behind the left shoulder. The tumor-bearing mice were used for PET/CT imaging and biodistribution studies when the tumor grew to 5–8 mm in diameter.
(§3) For biodistribution studies, the mice were injected with the radiotracer (~2–4 MBq), as described above. Blocking of [^68Ga]Ga-LW02075 and [^68Ga]Ga-LW02050 was conducted by co-injection with 100 μg nonradioactive Ga-LW02075 and Ga-LW02050, respectively, through a lateral caudal tail vein under anaesthesia. At 1 h post injection, the mice were sedated and euthanized by CO2 inhalation. Blood was collected via cardiac puncture, and organs/tissues of interest were collected, weighed, and counted on a Perkin Elmer (Waltham, MA, USA) Wizard2 2480 automatic gamma counter.

[1] = Ex vivo biodistribution in PC-3 tumor-bearing mice; conditions: male, mouse, iv, total radioactivity, mean ± SD, n = 4; for tissue uptake at 1 h: NOD.Cg-Rag1^tm1Mom Il2rg^tm1Wjl/SzJ (NRG); for tissue to tissue ratio at 1 h: NOD.Cg-Rag1tm1Mom Il2rgtm1Wjl/SzJ (NRG)
Experimental: as §1, §2, §3

PC-3 tumor xenografts = assay: PET/CT imaging in mice bearing PC-3 tumor xenografts; assay type: in vivo; conditions: 1 h post injection
Experimental: as §2
PET/CT imaging experiments were performed on a Siemens (Knoxville, TN, USA) Inveon micro PET/CT scanner. Each tumor-bearing mouse was injected with ~3–6 MBq of ^68Ga-labeled tracer through a lateral caudal tail vein under anaesthesia. At around 50 min post injection, a 10 min CT scan was obtained first for localization and attenuation correction after segmentation for reconstructing the PET image, followed by a 10 min static PET scan.

CC(C)C[C@H](NC(=O)[C@H](Cc1c[nH]cn1)NC(=O)CNC(=O)[C@@H](NC(=O)[C@H](C)NC(=O)[C@H](Cc1c[nH]c2ccccc12)NC(=O)[C@H](CCC(N)=O)NC(=O)[C@@H](Cc1ccccc1)NC(=O)CN1CCC(NC(=O)CN2CCN(CC(=O)O)CCN(CC(=O)O)CCN(CC(=O)O)CC2)CC1)C(C)C)C(=O)NO [[^68Ga]Ga-LW02050, [^68Ga]Ga-DOTA-Pip-D-Phe-Gln-Trp-Ala-Val-Gly-His-Leu-NHOH, metal not drawn]
logD (physchem): -2.3 ± 0.14
Reduction of average pancreas uptake by co-injection of nonradioactive standard (PC-3 tumor-bearing mice): 81%
Reduction of average uptake in PC-3 tumor xenografts by co-injection of nonradioactive standard (PC-3 tumor-bearing mice): 92%
tissue uptake at 1 h ([1]; PC-3 tumor, 1 h blocked: co-injected with 100 µg nonradioactive Ga-complexed standard, read-out: PC-3 tumor uptake, blocked): 0.42 ± 0.08 %ID/g
tissue uptake at 1 h ([1]; PC-3 tumor, 1 h post injection, read-out: PC-3 tumor uptake): 5.38 ± 1 %ID/g
tissue uptake at 1 h ([1]; adrenal glands, 1 h blocked: co-injected with 100 µg nonradioactive Ga-complexed standard, read-out: Adrenal glands uptake, blocked): 0.05 ± 0.05 %ID/g
tissue uptake at 1 h ([1]; adrenal glands, 1 h post injection, read-out: Adrenal glands uptake): 0.43 ± 0.15 %ID/g
tissue uptake at 1 h ([1]; blood, 1 h blocked: co-injected with 100 µg nonradioactive Ga-complexed standard, read-out: Blood uptake, blocked): 0.34 ± 0.06 %ID/g
tissue uptake at 1 h ([1]; blood, 1 h post injection, read-out: Blood uptake): 0.57 ± 0.11 %ID/g
tissue uptake at 1 h ([1]; bone, 1 h blocked: co-injected with 100 µg nonradioactive Ga-complexed standard, read-out: Bone uptake, blocked): 0.03 ± 0.03 %ID/g
tissue uptake at 1 h ([1]; bone, 1 h post injection, read-out: Bone uptake): 0.14 ± 0.06 %ID/g
tissue uptake at 1 h ([1]; brain, 1 h blocked: co-injected with 100 µg nonradioactive Ga-complexed standard, read-out: Brain uptake, blocked): 0.01 %ID/g
tissue uptake at 1 h ([1]; brain, 1 h post injection, read-out: Brain uptake): 0.03 ± 0.01 %ID/g
tissue uptake at 1 h ([1]; fat, 1 h blocked: co-injected with 100 µg nonradioactive Ga-complexed standard, read-out: Fat uptake, blocked): 0.04 ± 0.01 %ID/g
tissue uptake at 1 h ([1]; fat, 1 h post injection, read-out: Fat uptake): 0.05 ± 0.01 %ID/g
tissue uptake at 1 h ([1]; heart, 1 h blocked: co-injected with 100 µg nonradioactive Ga-complexed standard, read-out: Heart uptake, blocked): 0.1 ± 0.02 %ID/g
tissue uptake at 1 h ([1]; heart, 1 h post injection, read-out: Heart uptake): 0.19 ± 0.03 %ID/g
tissue uptake at 1 h ([1]; kidneys, 1 h blocked: co-injected with 100 µg nonradioactive Ga-complexed standard, read-out: Kidneys uptake, blocked): 1.95 ± 0.44 %ID/g
tissue uptake at 1 h ([1]; kidneys, 1 h post injection, read-out: Kidneys uptake): 2.88 ± 0.68 %ID/g
tissue uptake at 1 h ([1]; large intestine, 1 h blocked: co-injected with 100 µg nonradioactive Ga-complexed standard, read-out: Large intestine uptake, blocked): 0.19 ± 0.17 %ID/g
tissue uptake at 1 h ([1]; large intestine, 1 h post injection, read-out: Large intestine uptake): 0.34 ± 0.15 %ID/g
tissue uptake at 1 h ([1]; liver, 1 h blocked: co-injected with 100 µg nonradioactive Ga-complexed standard, read-out: Liver uptake, blocked): 0.29 ± 0.2 %ID/g
tissue uptake at 1 h ([1]; liver, 1 h post injection, read-out: Liver uptake): 0.44 ± 0.05 %ID/g
tissue uptake at 1 h ([1]; lungs, 1 h blocked: co-injected with 100 µg nonradioactive Ga-complexed standard, read-out: Lungs uptake, blocked): 0.33 ± 0.09 %ID/g
tissue uptake at 1 h ([1]; lungs, 1 h post injection, read-out: Lungs uptake): 0.55 ± 0.06 %ID/g
tissue uptake at 1 h ([1]; muscle, 1 h blocked: co-injected with 100 µg nonradioactive Ga-complexed standard, read-out: Muscle uptake, blocked): 0.06 ± 0.02 %ID/g
tissue uptake at 1 h ([1]; muscle, 1 h post injection, read-out: Muscle uptake): 0.13 ± 0.02 %ID/g
tissue uptake at 1 h ([1]; pancreas, 1 h blocked: co-injected with 100 µg nonradioactive Ga-complexed standard, read-out: Pancreas uptake, blocked): 0.1 ± 0.03 %ID/g
tissue uptake at 1 h ([1]; pancreas, 1 h post injection, read-out: Pancreas uptake): 0.53 ± 0.11 %ID/g
tissue uptake at 1 h ([1]; small intestine, 1 h blocked: co-injected with 100 µg nonradioactive Ga-complexed standard, read-out: Small intestine uptake, blocked): 0.26 ± 0.09 %ID/g
tissue uptake at 1 h ([1]; small intestine, 1 h post injection, read-out: Small intestine uptake): 0.43 ± 0.04 %ID/g
tissue uptake at 1 h ([1]; spleen, 1 h blocked: co-injected with 100 µg nonradioactive Ga-complexed standard, read-out: Spleen uptake, blocked): 0.12 ± 0.02 %ID/g
tissue uptake at 1 h ([1]; spleen, 1 h post injection, read-out: Spleen uptake): 0.25 ± 0.04 %ID/g
tissue uptake at 1 h ([1]; stomach, 1 h blocked: co-injected with 100 µg nonradioactive Ga-complexed standard, read-out: Stomach uptake, blocked): 0.04 ± 0.02 %ID/g
tissue uptake at 1 h ([1]; stomach, 1 h post injection, read-out: Stomach uptake): 0.34 ± 0.14 %ID/g
tissue uptake at 1 h ([1]; testes, 1 h blocked: co-injected with 100 µg nonradioactive Ga-complexed standard, read-out: Testes uptake, blocked): 0.13 ± 0.05 %ID/g
tissue uptake at 1 h ([1]; testes, 1 h post injection, read-out: Testes uptake): 0.17 ± 0.05 %ID/g
tissue to tissue ratio at 1 h ([1]; tumor and bone, 1 h blocked: co-injected with 100 µg nonradioactive Ga-complexed standard, read-out: Tumor/bone uptake ratio, blocked): 27.1 ± 18.1
tissue to tissue ratio at 1 h ([1]; tumor and bone, 1 h post injection, read-out: Tumor/bone uptake ratio): 43.6 ± 22.6
tissue to tissue ratio at 1 h ([1]; tumor and kidney, 1 h blocked: co-injected with 100 µg nonradioactive Ga-complexed standard, read-out: Tumor/kidney uptake ratio, blocked): 0.22 ± 0.05
tissue to tissue ratio at 1 h ([1]; tumor and kidney, 1 h post injection, read-out: Tumor/kidney uptake ratio): 1.92 ± 0.41
tissue to tissue ratio at 1 h ([1]; tumor and muscle, 1 h blocked: co-injected with 100 µg nonradioactive Ga-complexed standard, read-out: Tumor/muscle uptake ratio, blocked): 8.28 ± 2.7
tissue to tissue ratio at 1 h ([1]; tumor and muscle, 1 h post injection, read-out: Tumor/muscle uptake ratio): 44.4 ± 14.1
tissue to tissue ratio at 1 h ([1]; tumor and pancreas, 1 h blocked: co-injected with 100 µg nonradioactive Ga-complexed standard, read-out: Tumor/pancreas uptake ratio, blocked): 4.3 ± 0.83
tissue to tissue ratio at 1 h ([1]; tumor and pancreas, 1 h post injection, read-out: Tumor/pancreas uptake ratio): 10.7 ± 4.17
tissue to tissue ratio at 1 h ([1]; tumor and whole blood, 1 h blocked: co-injected with 100 µg nonradioactive Ga-complexed standard, read-out: Tumor/blood uptake ratio, blocked): 1.23 ± 0.14
tissue to tissue ratio at 1 h ([1]; tumor and whole blood, 1 h post injection, read-out: Tumor/blood uptake ratio): 9.68 ± 2.84
Uptake in PC-3 tumor xenograft in PET image with blocking (PC-3 tumor xenografts; co-injection with 100 μg nonradioactive standard): close to the background level
Excretion pathway in PET images (PC-3 tumor xenografts; mice): excreted primarily through the renal pathway
Pancreas in PET images (PC-3 tumor xenografts; mice): nearly invisible
Visualization of PC-3 tumor xenografts in PET images (PC-3 tumor xenografts; ~3–6 MBq i.v., mice): clearly visualized
